Columns and labels:
PBMC/mono- (T cells) = assay: Reprogramming of T cells to Treg cells, flow cytometry of CD4 and CD25 in PBMC lacking CD14 monocytes; format: cell-based, human; details: 10, 20 or 50 μg/ml
Method: 100 ml of healthy human blood was collected from a donor and the peripheral blood mononuclear cells (PBMCs) were isolated by density-gradient centrifugation using Histopaque-1077 (Sigma-Aldrich, St Louis, Mo.). CD14+ monocytes were removed by magnetic bead selection (Miltenyi Biotec, Auburn, Calif.). Briefly, […] PBMCs were incubated with 200 μL anti-CD14 microbeads (Miltenyi Biotec) in ice for 30 minutes. The cells were washed with cold 1×PBS with 2% FCS and centrifuged at 300 g for 10 minutes and then resuspended in 1×PBS with 2% FCS. The cell suspension was applied to the magnetic column and unbinding cells were passed through by washing 3 times with 1×PBS with 2% FCS. The PBMC/mono- were harvested by centrifuged at 300 g for 10 minutes.
The PBMC/mono- were cultured in 6-well plates (Becton Dickinson, Gaithersburg, Md.) supplemented with 10% FBS, nonessential amino acids, 2 mM glutamine, 1 mM sodium pyruvate, 25 mM HEPES, 200 units/ml penicillin, and streptomycin at 37° C. and 5% CO2. After 1 hour of culture, His6-Foxp3-11R (10 μg/ml, 20 μg/ml, or 50 μg/ml) was added to the cells. BSA (100 μg/ml) was added to another well as control. Same concentration of His6-Foxp3-11R or BSA was added after cultured for two days. After 5 days of culture, the cells were washed with PBS twice. The cells were re-suspended in 100 μL diluted and added rabbit anti-human CD25 for 90 minutes. […]

PBMC (T cells) = assay: Reprogramming of T cells to Treg cells, flow cytometry of CD4 and CD25 in PBMC; format: cell-based, human; details: 10, 50 or 100 μg/ml
Method: 100 ml of healthy human blood was collected from a donor and the peripheral blood mononuclear cells (PBMCs) were isolated by density-gradient centrifugation using Histopaque-1077 (Sigma-Aldrich, St Louis, Mo.). The PBMC/mono^− were cultured in […] plates (Becton Dickinson, Gaithersburg, Md.) supplemented with 10% FBS, nonessential amino acids, 2 mM glutamine, 1 mM sodium pyruvate, 25 mM HEPES, 200 units/ml penicillin, and streptomycin at 37° C. and 5% CO2. After 1 hour of culture, Foxp3 (10 μg/ml, 50 μg/ml, 100 μg/ml) were added to the cells. BSA (100 μg/ml) was added to another well as control. Same concentration of the Foxp3 or BSA was added after cultured two days. Following 5 days of culture, the cells were washed with PBS twice. The cells were re-suspended in 100 μL diluted and added rabbit anti-human CD25 for 90 minutes. The cells were washed three time with cold 1×PBS supplied 2% FBS and then the conjugated-PE mouse anti-human CD4 as well as conjugated-FITC goat anti-rabbit IgG were added to the cells for 60 minutes in ice. Conjugated-PE mouse IgG and rabbit IgG were incubated with another group cells as Isotype control. The cells were washed with PBS for flow cytometric analysis using a Beckman Coulter FC500 cytometer with Cytomics CXP software (Beckman Coulter, Fullerton, Calif.) (FIGS. 14-17).

[1] = added again after two days, 5 days of culture

B1: His6-Foxp3-11R: His6-tagged Foxp3 fused to 11R, SEQ ID NO: 33 (protein)
chain: MGSSHHHHHHSSGLVPRGSHMPNPRPGKPSAPSLALGPSPGASPSWRAAPKASDLLGARGPGGTFQGRDLRGGAHASSSSLNPMPPSQLQLPTLPLVMVAPSGARLGPLPHLQALLQDRPHFMHQLSTVDAHARTPVLQVHPLESPAMISLTPPTTATGVFSLKARPGLPPGINVASLEWVSREPALLCTFPNPSAPRKDSTLSAVPQSSYPLLANGVCKWPGCEKVFEEPEDFLKHCQADHLLDEKGRAQCLLQREMVQSLEQQLVLEKEKLSAMQAHLAGKMALTKASSVASSDKGSCCIVAAGSQGPVVPAWSGPREAPDSLFAVRRHLWGSHGNSTFPEFLHNMDYFKFHNMRPPFTYATLIRWAILEAPEKQRTLNEIYHWFTRMFAFFRNHPATWKNAIRHNLSLHKCFVRVESEKGAVWTVDELEFRKKRSQRPSRCSNPTPGPESGGGGSPGRRRRRRRRRRR
modifications: transducible material
PBMC/mono- (T cells)
  dose dependence of the increase of CD4+CD25+T cells: protein-dose dependent
PBMC/mono- (T cells); [1]
  CD4+CD25+T cells (Treg cells): dramatically increased
PBMC (T cells)
  dose dependence of the increase of CD4+CD25+T cells: protein-dose dependent
PBMC (T cells); [1]
  CD4+CD25+T cells (Treg cells): dramatically increased

From patent US20130097717A1, “COMPOSITIONS AND METHODS FOR RE-PROGRAMMING CELLS WITHOUT GENETIC MODIFICATION FOR TREATMENT OF CARDIOVASCULAR DISEASES” (VIVOSCRIPT, INC., priority 2010, published 2013)
